Data taken from patent publication US20140127211A1.

What was measured:
[1] = biological target: Notch 1-3 NRR domain swap chimera: B of Notch1; A, C, hd1, hd2 of Notch3 (row 5, unnamed on the sheet) (human); assay: ELISA: NRR-Fc protein coated at 1 ug/ml, antibody applied at 5 ug/ml, goat anti-human Fc-HRP, TMB, O.D. 450 nM
[2] = biological target: Notch 1-3 NRR domain swap chimera: C of Notch1; A, B, hd1, hd2 of Notch3 (row 6, unnamed on the sheet) (human); assay: as above

O.D. 450 nM (ELISA, relative binding capacity) [1]: 2.37
O.D. 450 nM (ELISA, relative binding capacity) [2]: 0.8
B1: rat-human chimeric antibody 75 (ch75) (antibody, V domains shown)
VH: QVKLLQSGAALVKPGASVKMSCKASGYAFTDYWVTWVKQSHGKSLEWIGEISPNSGGTNFNEKFKGKATLTVDKSTSTAYMELSRLTSEDSAIYYCTRGEIRYNWFAYWGQGTLVTVSS
VL: NIVMTQSPKSMSISVGDRVTMNCKASQNVGNNIAWYQQKPGQSPKLLIYYASNRYTGVPDRFTGGGYGTDFTLTINSMQAEDAAFYYCQRLYNSPFTFGSGTKLEIK
